Target: human serum albumin (Albuminar, Aventis) (human), P02768
Assay: SPR (BIACORE 3000), serum albumin immobilised on CM5 chip, analyte injected; Req divided by molecular weight; reference GnRH-Fc

fold more bound (Req/MW) than GnRH-Fc: > 5 times
Binder: QHWSYGLRPG (peptide, UniProt P01148 24-33, looked up, modifications not checked) [GnRH peptide (gonadotropin releasing hormone), P01148 24-33]

Reference: US20050037947A1, “INHIBITION OF DRUG BINDING TO SERUM ALBUMIN” (priority 2003, published 2005)
